Laboratory results reported in paper PMC9629070 (Autophagy, 2022).

Experiments:
Assay in all cases: pull-down
GST-ATG6 = target: T1, GST-ATG6 (Arabidopsis thaliana, UniProt Q9M367 1-517)
T1 sequence (looked up): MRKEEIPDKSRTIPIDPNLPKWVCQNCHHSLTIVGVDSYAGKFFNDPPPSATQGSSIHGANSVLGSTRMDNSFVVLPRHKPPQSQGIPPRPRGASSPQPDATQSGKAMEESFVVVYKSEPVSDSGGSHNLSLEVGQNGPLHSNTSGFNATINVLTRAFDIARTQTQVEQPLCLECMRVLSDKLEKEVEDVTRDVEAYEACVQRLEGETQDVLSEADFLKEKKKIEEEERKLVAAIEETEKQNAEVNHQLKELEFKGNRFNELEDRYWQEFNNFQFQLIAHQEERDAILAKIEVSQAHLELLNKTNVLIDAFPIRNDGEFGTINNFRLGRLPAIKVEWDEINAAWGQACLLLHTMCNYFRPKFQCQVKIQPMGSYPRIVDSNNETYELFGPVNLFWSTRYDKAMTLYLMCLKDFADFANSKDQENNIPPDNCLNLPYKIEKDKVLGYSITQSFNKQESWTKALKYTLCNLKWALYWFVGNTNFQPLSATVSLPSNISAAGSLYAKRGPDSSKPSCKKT

GAPC2-His = GAPC2-His (Arabidopsis thaliana, UniProt Q9FX54 1-338)
GAPC1-His = GAPC1-His (Arabidopsis thaliana, UniProt P25858 1-338)
Sequence of GAPC1-His (P25858 whole entry): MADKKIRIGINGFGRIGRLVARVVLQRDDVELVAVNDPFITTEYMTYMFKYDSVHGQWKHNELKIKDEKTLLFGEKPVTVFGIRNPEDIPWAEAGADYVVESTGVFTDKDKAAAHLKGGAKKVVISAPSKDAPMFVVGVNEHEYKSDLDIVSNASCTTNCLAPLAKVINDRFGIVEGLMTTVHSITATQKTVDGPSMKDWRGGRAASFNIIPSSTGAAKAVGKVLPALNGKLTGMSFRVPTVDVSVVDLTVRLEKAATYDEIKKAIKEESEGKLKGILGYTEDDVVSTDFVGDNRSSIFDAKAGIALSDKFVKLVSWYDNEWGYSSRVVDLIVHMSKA

Sequence of GAPC2-His (Q9FX54 whole entry): as the sequence (P25858 whole entry) above, with N61H, I65V, E68D, A92G, Y98F, A227S, L274M counted along it

B1: PGK3-His (natural protein, Arabidopsis thaliana, UniProt Q9SAJ4 1-401, looked up)
chain: MATKRSVGTLKEADLKGKSVFVRVDLNVPLDDNSNITDDTRIRAAVPTIKYLMGNGSRVVLCSHLGRPKGVTPKYSLKPLVPRLSELLGVEVVMANDSIGEEVQKLVAGLPEGGVLLLENVRFYAEEEKNDPEFAKKLAALADVYVNDAFGTAHRAHASTEGVAKFLKPSVAGFLMQKELDYLVGAVANPKKPFAAIVGGSKVSTKIGVIESLLNTVDILLLGGGMIFTFYKAQGLSVGSSLVEEDKLDLAKSLMEKAKAKGVSLLLPTDVVIADKFAPDANSKIVPATAIPDGWMGLDIGPDSIKTFSEALDTTKTIIWNGPMGVFEFDKFAAGTEAVAKQLAELSGKGVTTIIGGGDSVAAVEKVGLADKMSHISTGGGASLELLEGKPLPGVLALDEA
B1: binds (GST-ATG6).

B2: GST-ATG3 (natural protein, Arabidopsis thaliana, UniProt Q0WWQ1 1-313, looked up)
chain: MVLSQKLHEAFKGTVERITGPRTISAFKEKGVLSVSEFVLAGDNLVSKCPTWSWESGDASKRKPYLPSDKQFLITRNVPCLRRAASVAEDYEAAGGEVLVDDEDNDGWLATHGKPKDKGKEEDNLPSMDALDINEKNTIQSIPTYFGGEEDDDIPDMEEFDEADNVVENDPATLQSTYLVAHEPDDDNILRTRTYDLSITYDKYYQTPRVWLTGYDESRMLLQPELVMEDVSQDHARKTVTIEDHPHLPGKHASVHPCRHGAVMKKIIDVLMSRGVEPEVDKYLFLFLKFMASVIPTIEYDYTMDFDLGSSST
B2: binds (GAPC2-His); binds (GAPC1-His).
